Assay results taken from PMC5418573.

Tests used:
[1] = target: recombinant PolB1 of Sulfolobus solfataricus (Sulfolobus solfataricus) (UniProt P26811)
[2] = target: recombinant PolB1 of Sulfolobus solfataricus (Sulfolobus solfataricus) (UniProt P26811); assay: native MS; PolB1-HE complex at 4.2 μM in 50 mM ammonium acetate, nano ESI, Synapt G2S

Chain of UniProt P26811 (P26811 36-882): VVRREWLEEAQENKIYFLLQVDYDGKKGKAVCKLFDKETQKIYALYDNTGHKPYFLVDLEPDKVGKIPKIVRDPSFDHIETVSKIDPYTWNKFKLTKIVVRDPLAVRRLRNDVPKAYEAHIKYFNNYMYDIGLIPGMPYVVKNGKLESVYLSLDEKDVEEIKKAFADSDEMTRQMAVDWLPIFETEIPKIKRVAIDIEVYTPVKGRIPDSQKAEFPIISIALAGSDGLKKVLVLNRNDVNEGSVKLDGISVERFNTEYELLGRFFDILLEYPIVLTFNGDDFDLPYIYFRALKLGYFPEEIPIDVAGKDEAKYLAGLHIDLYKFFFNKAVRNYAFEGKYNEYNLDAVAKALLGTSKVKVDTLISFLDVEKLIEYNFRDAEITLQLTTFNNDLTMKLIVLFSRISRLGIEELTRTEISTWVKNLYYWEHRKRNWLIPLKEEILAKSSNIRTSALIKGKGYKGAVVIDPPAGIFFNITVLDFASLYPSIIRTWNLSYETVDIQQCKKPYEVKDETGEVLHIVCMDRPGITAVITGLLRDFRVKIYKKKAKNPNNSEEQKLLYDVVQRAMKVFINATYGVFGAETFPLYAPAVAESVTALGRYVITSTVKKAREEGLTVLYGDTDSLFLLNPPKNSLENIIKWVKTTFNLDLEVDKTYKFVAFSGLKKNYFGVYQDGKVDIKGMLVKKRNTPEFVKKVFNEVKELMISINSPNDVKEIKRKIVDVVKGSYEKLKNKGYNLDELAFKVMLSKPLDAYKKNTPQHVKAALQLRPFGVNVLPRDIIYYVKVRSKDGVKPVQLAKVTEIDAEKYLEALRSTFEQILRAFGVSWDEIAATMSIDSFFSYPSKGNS

| kinetics of excision of the 3′ nucleotide (dGMP) [1] [fold] | stoichiometry N [2] | Substance |
| --- | --- | --- |
| 6 |  | PBP1ΔC, PBP1 C-terminal tail deletion mutant (from UniProt Q980X5 1-78) (domain or fragment) |
|  | 1 | recombinant PBP2 of Sulfolobus solfataricus (SSO6202) (natural protein) |
|  | 1 | recombinant PBP1 of Sulfolobus solfataricus (SSO0150) (from UniProt Q980X5 1-118) (natural protein) |
